{"source": "paper PMC3906316", "about": "(Journal of Medicinal Chemistry, 2013)", "molecular_target": "bromodomain of CREB (cyclic-AMP response element binding) binding protein (UniProt Q92793-1)", "sequence (Q92793 1081-1197)": "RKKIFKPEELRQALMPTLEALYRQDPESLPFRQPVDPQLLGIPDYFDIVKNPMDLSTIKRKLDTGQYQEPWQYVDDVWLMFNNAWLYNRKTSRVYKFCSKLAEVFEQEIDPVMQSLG", "test": "AlphaScreen or HTRF", "settings": "both partners purified"}
{"binder": "ALREIRRYQKSTELLIRKLK (K(Ac) at peptide position 10 (H3K56); C-terminal K(Biotin))", "note": "[H3K56(Ac) peptide]", "values": [{"measurement": "binding result", "result": "binds"}]}
